The target in this experiment is stabilized pre-fusion RSV F glycoprotein (DS-Cav1) (respiratory syncytial virus (strain not stated)) (UniProt P03420). Kind of experiment: crystal structure; RB1 Fab with DS-Cav1, complex purified by SEC; crystals in 100 mM Tris pH 8.5, 12% PEG 8000, 200 mM ammonium sulfate; 3.4 A. On the technique in general: In gel filtration, larger molecules generally elute earlier.

One substance from PMC6742648 can be followed below.

A word on the stoichiometry N: it is a count of units in the complex or per binding partner. In turn, “stabilized pre-fusion RSV F glycoprotein (DS-Cav1) (from UniProt P03420 137-513) (natural protein)” yielded a stoichiometry N of 3.
